From US20230406885A1, “CYCLIC PEPTIDES FOR TRAPPING INTERLEUKIN-1 BETA” (MERCK SHARP & DOHME LLC, priority 2022, published 2023)
*1 amine or outer side, *2 acyl side, *3 side chain or, on linkers, in order; H or OH if unused. [ ]: non-standard residue; d: D form. F4bcpA = 3-[4-[(S)-2-amino-2-carboxyethyl]phenyl]bicyclo[1.1.1]pentane-1-carboxylic acid, O=C([C@H](Cc1ccc(C23CC(C(=O)[*:3])(C2)C3)cc1)N[*:1])[*:2]; 3AzaPhe4AcPip = (S)-3-(6-(4-acetylpiperazin-1-yl)pyridin-3-yl)-2-aminopropanoic acid, CC(=O)N1CCN(c2ccc(C[C@H](N[*:1])C(=O)[*:2])cn2)CC1; Pro(trans-4-NH2) = O=C([C@@H]1C[C@@H](N[*:3])CN1[*:1])[*:2]; Trp(βS-Me,4-F) = C[C@@H](c1c[nH]c2cccc(F)c12)[C@H](N)C(=O)O; Bip(4'-COOH) = N[C@@H](Cc1ccc(-c2ccc(C(=O)O)cc2)cc1)C(=O)O; hQ = L-homoglutamine, NC(=O)CCC[C@H](N[*:1])C(=O)[*:2]; 1Nal(3S-Me) = C[C@@H](c1cccc2ccccc12)[C@H](N)C(=O)O; Ala(indazol-1-yl) = N[C@@H](Cn1ncc2ccccc21)C(=O)O; Phe(4-COOH) = N[C@@H](Cc1ccc(C(=O)O)cc1)C(=O)O; Trp(7-Me) = Cc1cccc2c(C[C@H](N)C(=O)O)c[nH]c12; h3Pal(5-CN) = N#Cc1cncc(CC[C@H](N)C(=O)O)c1; hTyr = N[C@@H](CCc1ccc(O)cc1)C(=O)O; hCha = N[C@@H](CCC1CCCCC1)C(=O)O; tBuAla = CC(C)(C)C[C@H](N)C(=O)O; Cha = N[C@@H](CC1CCCCC1)C(=O)O; dNle = CCCC[C@@H](N)C(=O)O; dDab = NCC[C@@H](N)C(=O)O; dNva = CCC[C@@H](N)C(=O)O; Orn = NCCC[C@H](N)C(=O)O; dNMeA = CN[C@H](C)C(=O)O

B1: SEQ ID NO: 183 (Example No. 183) (peptide)
peptide: cyclo([3AzaPhe4AcPip]W[Phe(4-COOH)]G[Pro(trans-4-NH2)][1Nal(3S-Me)]D[dNMeA]G[Bip(4'-COOH)]QL[dA][h3Pal(5-CN)])
SMILES: CC(=O)N1CCN(c2ccc(C[C@@H]3NC(=O)[C@H](CCc4cncc(C#N)c4)NC(=O)[C@@H](C)NC(=O)[C@H](CC(C)C)NC(=O)[C@H](CCC(N)=O)NC(=O)[C@H](Cc4ccc(-c5ccc(C(=O)O)cc5)cc4)NC(=O)CNC(=O)[C@@H](C)N(C)C(=O)[C@H](CC(=O)O)NC(=O)[C@H]([C@@H](C)c4cccc5ccccc45)NC(=O)[C@@H]4C[C@@H](N)CN4C(=O)CNC(=O)[C@H](Cc4ccc(C(=O)O)cc4)NC(=O)[C@H](Cc4c[nH]c5ccccc45)NC3=O)cn2)CC1
B2: SEQ ID NO: 181 (Example No. 181) (peptide)
peptide: cyclo([3AzaPhe4AcPip]W[Phe(4-COOH)]G[Pro(trans-4-NH2)][1Nal(3S-Me)]D[dNMeA]G[Bip(4'-COOH)]K[tBuAla][dA][h3Pal(5-CN)])
SMILES: CC(=O)N1CCN(c2ccc(C[C@@H]3NC(=O)[C@H](CCc4cncc(C#N)c4)NC(=O)[C@@H](C)NC(=O)[C@H](CC(C)(C)C)NC(=O)[C@H](CCCCN)NC(=O)[C@H](Cc4ccc(-c5ccc(C(=O)O)cc5)cc4)NC(=O)CNC(=O)[C@@H](C)N(C)C(=O)[C@H](CC(=O)O)NC(=O)[C@H]([C@@H](C)c4cccc5ccccc45)NC(=O)[C@@H]4C[C@@H](N)CN4C(=O)CNC(=O)[C@H](Cc4ccc(C(=O)O)cc4)NC(=O)[C@H](Cc4c[nH]c5ccccc45)NC3=O)cn2)CC1
B3: SEQ ID NO: 178 (Example No. 178) (peptide)
peptide: cyclo([3AzaPhe4AcPip]W[Phe(4-COOH)]G[Pro(trans-4-NH2)][1Nal(3S-Me)]D[dNMeA]G[Bip(4'-COOH)]KL[dL][h3Pal(5-CN)])
SMILES: CC(=O)N1CCN(c2ccc(C[C@@H]3NC(=O)[C@H](CCc4cncc(C#N)c4)NC(=O)[C@@H](CC(C)C)NC(=O)[C@H](CC(C)C)NC(=O)[C@H](CCCCN)NC(=O)[C@H](Cc4ccc(-c5ccc(C(=O)O)cc5)cc4)NC(=O)CNC(=O)[C@@H](C)N(C)C(=O)[C@H](CC(=O)O)NC(=O)[C@H]([C@@H](C)c4cccc5ccccc45)NC(=O)[C@@H]4C[C@@H](N)CN4C(=O)CNC(=O)[C@H](Cc4ccc(C(=O)O)cc4)NC(=O)[C@H](Cc4c[nH]c5ccccc45)NC3=O)cn2)CC1
B4: SEQ ID NO: 187 (Example No. 187) (peptide)
peptide: cyclo([Bip(4'-COOH)]W[Phe(4-COOH)]G[Pro(trans-4-NH2)][Trp(βS-Me,4-F)]D[dNMeA]G[Bip(4'-COOH)]KL[dK](Ac)[hTyr])
SMILES: CC(=O)NCCCC[C@H]1NC(=O)[C@H](CC(C)C)NC(=O)[C@H](CCCCN)NC(=O)[C@H](Cc2ccc(-c3ccc(C(=O)O)cc3)cc2)NC(=O)CNC(=O)[C@@H](C)N(C)C(=O)[C@H](CC(=O)O)NC(=O)[C@H]([C@@H](C)c2c[nH]c3cccc(F)c23)NC(=O)[C@@H]2C[C@@H](N)CN2C(=O)CNC(=O)[C@H](Cc2ccc(C(=O)O)cc2)NC(=O)[C@H](Cc2c[nH]c3ccccc23)NC(=O)[C@H](Cc2ccc(-c3ccc(C(=O)O)cc3)cc2)NC(=O)[C@H](CCc2ccc(O)cc2)NC1=O
B5: SEQ ID NO: 189 (Example No. 189) (peptide)
peptide: cyclo([F4bcpA]W[Phe(4-COOH)]G[Pro(trans-4-NH2)][1Nal(3S-Me)]D[dNMeA]G[Bip(4'-COOH)][Cha]G[dDab][hCha])
SMILES: C[C@@H]1C(=O)NCC(=O)N[C@@H](Cc2ccc(-c3ccc(C(=O)O)cc3)cc2)C(=O)N[C@@H](CC2CCCCC2)C(=O)NCC(=O)N[C@H](CCN)C(=O)N[C@@H](CCC2CCCCC2)C(=O)N[C@@H](Cc2ccc(C34CC(C(=O)O)(C3)C4)cc2)C(=O)N[C@@H](Cc2c[nH]c3ccccc23)C(=O)N[C@@H](Cc2ccc(C(=O)O)cc2)C(=O)NCC(=O)N2C[C@H](N)C[C@H]2C(=O)N[C@@H]([C@@H](C)c2cccc3ccccc23)C(=O)N[C@@H](CC(=O)O)C(=O)N1C
B6: SEQ ID NO: 179 (Example No. 179) (peptide)
peptide: cyclo([3AzaPhe4AcPip]W[Phe(4-COOH)]G[Pro(trans-4-NH2)][1Nal(3S-Me)]D[dNMeA]G[Bip(4'-COOH)]KL[dNle][h3Pal(5-CN)])
SMILES: CCCC[C@H]1NC(=O)[C@H](CC(C)C)NC(=O)[C@H](CCCCN)NC(=O)[C@H](Cc2ccc(-c3ccc(C(=O)O)cc3)cc2)NC(=O)CNC(=O)[C@@H](C)N(C)C(=O)[C@H](CC(=O)O)NC(=O)[C@H]([C@@H](C)c2cccc3ccccc23)NC(=O)[C@@H]2C[C@@H](N)CN2C(=O)CNC(=O)[C@H](Cc2ccc(C(=O)O)cc2)NC(=O)[C@H](Cc2c[nH]c3ccccc23)NC(=O)[C@H](Cc2ccc(N3CCN(C(C)=O)CC3)nc2)NC(=O)[C@H](CCc2cncc(C#N)c2)NC1=O
B7: SEQ ID NO: 182 (Example No. 182) (peptide)
peptide: cyclo([3AzaPhe4AcPip]W[Phe(4-COOH)]G[Pro(trans-4-NH2)][1Nal(3S-Me)]D[dNMeA]G[Bip(4'-COOH)][Orn]L[dA][hCha])
SMILES: CC(=O)N1CCN(c2ccc(C[C@@H]3NC(=O)[C@H](CCC4CCCCC4)NC(=O)[C@@H](C)NC(=O)[C@H](CC(C)C)NC(=O)[C@H](CCCN)NC(=O)[C@H](Cc4ccc(-c5ccc(C(=O)O)cc5)cc4)NC(=O)CNC(=O)[C@@H](C)N(C)C(=O)[C@H](CC(=O)O)NC(=O)[C@H]([C@@H](C)c4cccc5ccccc45)NC(=O)[C@@H]4C[C@@H](N)CN4C(=O)CNC(=O)[C@H](Cc4ccc(C(=O)O)cc4)NC(=O)[C@H](Cc4c[nH]c5ccccc45)NC3=O)cn2)CC1
B8: SEQ ID NO: 176 (Example No. 176) (peptide)
peptide: cyclo([3AzaPhe4AcPip]W[Phe(4-COOH)]G[Pro(trans-4-NH2)][1Nal(3S-Me)]D[dNMeA]G[Bip(4'-COOH)][hQ]L[dA][h3Pal(5-CN)])
SMILES: CC(=O)N1CCN(c2ccc(C[C@@H]3NC(=O)[C@H](CCc4cncc(C#N)c4)NC(=O)[C@@H](C)NC(=O)[C@H](CC(C)C)NC(=O)[C@H](CCCC(N)=O)NC(=O)[C@H](Cc4ccc(-c5ccc(C(=O)O)cc5)cc4)NC(=O)CNC(=O)[C@@H](C)N(C)C(=O)[C@H](CC(=O)O)NC(=O)[C@H]([C@@H](C)c4cccc5ccccc45)NC(=O)[C@@H]4C[C@@H](N)CN4C(=O)CNC(=O)[C@H](Cc4ccc(C(=O)O)cc4)NC(=O)[C@H](Cc4c[nH]c5ccccc45)NC3=O)cn2)CC1
B9: SEQ ID NO: 186 (Example No. 186) (peptide)
peptide: cyclo([Bip(4'-COOH)][Trp(7-Me)][Phe(4-COOH)]G[Pro(trans-4-NH2)][Trp(βS-Me,4-F)]D[dNMeA]G[Bip(4'-COOH)]KL[dA][hTyr])
SMILES: Cc1cccc2c(C[C@@H]3NC(=O)[C@H](Cc4ccc(-c5ccc(C(=O)O)cc5)cc4)NC(=O)[C@H](CCc4ccc(O)cc4)NC(=O)[C@@H](C)NC(=O)[C@H](CC(C)C)NC(=O)[C@H](CCCCN)NC(=O)[C@H](Cc4ccc(-c5ccc(C(=O)O)cc5)cc4)NC(=O)CNC(=O)[C@@H](C)N(C)C(=O)[C@H](CC(=O)O)NC(=O)[C@H]([C@@H](C)c4c[nH]c5cccc(F)c45)NC(=O)[C@@H]4C[C@@H](N)CN4C(=O)CNC(=O)[C@H](Cc4ccc(C(=O)O)cc4)NC3=O)c[nH]c12
B10: SEQ ID NO: 188 (Example No. 188) (peptide)
peptide: cyclo([F4bcpA]W[Phe(4-COOH)]G[Pro(trans-4-NH2)][1Nal(3S-Me)]D[dNMeA]G[Bip(4'-COOH)][Ala(indazol-1-yl)]G[dDab][hCha])
SMILES: C[C@@H]1C(=O)NCC(=O)N[C@@H](Cc2ccc(-c3ccc(C(=O)O)cc3)cc2)C(=O)N[C@@H](Cn2ncc3ccccc32)C(=O)NCC(=O)N[C@H](CCN)C(=O)N[C@@H](CCC2CCCCC2)C(=O)N[C@@H](Cc2ccc(C34CC(C(=O)O)(C3)C4)cc2)C(=O)N[C@@H](Cc2c[nH]c3ccccc23)C(=O)N[C@@H](Cc2ccc(C(=O)O)cc2)C(=O)NCC(=O)N2C[C@H](N)C[C@H]2C(=O)N[C@@H]([C@@H](C)c2cccc3ccccc23)C(=O)N[C@@H](CC(=O)O)C(=O)N1C
B11: SEQ ID NO: 177 (Example No. 177) (peptide)
peptide: cyclo([3AzaPhe4AcPip]W[Phe(4-COOH)]G[Pro(trans-4-NH2)][1Nal(3S-Me)]D[dNMeA]G[Bip(4'-COOH)]KL[dA][hCha])
SMILES: CC(=O)N1CCN(c2ccc(C[C@@H]3NC(=O)[C@H](CCC4CCCCC4)NC(=O)[C@@H](C)NC(=O)[C@H](CC(C)C)NC(=O)[C@H](CCCCN)NC(=O)[C@H](Cc4ccc(-c5ccc(C(=O)O)cc5)cc4)NC(=O)CNC(=O)[C@@H](C)N(C)C(=O)[C@H](CC(=O)O)NC(=O)[C@H]([C@@H](C)c4cccc5ccccc45)NC(=O)[C@@H]4C[C@@H](N)CN4C(=O)CNC(=O)[C@H](Cc4ccc(C(=O)O)cc4)NC(=O)[C@H](Cc4c[nH]c5ccccc45)NC3=O)cn2)CC1
B12: SEQ ID NO: 180 (Example No. 180) (peptide)
peptide: cyclo([3AzaPhe4AcPip]W[Phe(4-COOH)]G[Pro(trans-4-NH2)][1Nal(3S-Me)]D[dNMeA]G[Bip(4'-COOH)]KL[dNva][h3Pal(5-CN)])
SMILES: CCC[C@H]1NC(=O)[C@H](CC(C)C)NC(=O)[C@H](CCCCN)NC(=O)[C@H](Cc2ccc(-c3ccc(C(=O)O)cc3)cc2)NC(=O)CNC(=O)[C@@H](C)N(C)C(=O)[C@H](CC(=O)O)NC(=O)[C@H]([C@@H](C)c2cccc3ccccc23)NC(=O)[C@@H]2C[C@@H](N)CN2C(=O)CNC(=O)[C@H](Cc2ccc(C(=O)O)cc2)NC(=O)[C@H](Cc2c[nH]c3ccccc23)NC(=O)[C@H](Cc2ccc(N3CCN(C(C)=O)CC3)nc2)NC(=O)[C@H](CCc2cncc(C#N)c2)NC1=O

Target: Recombinant human IL-1β (BioLegend 579404) (human, UniProt P01584 117-269)
Experiment: cell-based or functional assay

MRC5 IC50 [nM] | Binder
0.024 | cyclo([Bip(4'-COOH)][Trp7F][Phe(4-COOH)]G[Pro(trans-4-NH2)][Trp(βS-Me,4-F)]D[dNMeA]G[Bip(4'-COOH)]KL[dA][hTyr]) [SEQ ID NO: 185 (Example No. 185)]
0.013 | B1
0.015 | B2
0.019 | B3
0.009 | B4
0.019 | B5
0.017 | B6
0.013 | B7
0.017 | B8
0.038 | B9
0.016 | B10
0.013 | B11
0.018 | cyclo([Bip(4'-COOH)][Trp6Cl][Phe(4-COOH)]G[Pro(trans-4-NH2)][Trp(βS-Me,4-F)]D[dNMeA]G[Bip(4'-COOH)]KL[dA][hTyr]) [SEQ ID NO: 184 (Example No. 184)]
0.021 | B12
